According to patent US20210147574A1 (UNIVERSIT DEGLI STUDI DI FIRENZE, published 2021):

Key:
hERG1 [1] = molecular target: T1, hERG1 (human, UniProt Q12809 1-1159); test: cell-based or functional assay
S5-Pore peptide = molecular target: T2, S5-Pore peptide; test: binding to immobilized antigen (method section: ELISA on plates coated with S5-Pore peptide)
T2 construct: Peptide of the S5-pore extracellular portion of hERG1; also called S5PORO peptide; peptide S5PORO
T2 peptide: EQPHMDSRIGWLHN
Experimental: To evaluate if the two engineered antibodies, scFv-hERG1-G3 and scFv-hERG1-D8Cys, have still the ability to bind the antigen and afterwards to investigate the different affinity of the two antibodies ELISA assays were performed using plates coated with S5-Pore peptide (sequence: […]), towards which the antibody is directed. This peptide is the same we used to screen anti-hERG1 A7 antibody.

hERG1 [2] = molecular target: T1, hERG1; test: immunofluorescence on fixed and live HEK293-hERG1 cells, intensity by ImageJ
Experimental: Then an immunofluorescence analysis was performed using scFv-hERG1-G3 and scFv-hERG1-D8Cys on fixed cells, to determine the immunoreactivity of the two antibodies. […] Data analysis obtained using ImageJ Software is reported in the graphs reported in panel C.
Cells were seeded O/N on glass coverslips and then washed once with PBS and fixed with 4% paraformaldeide for 20 min at room temperature. Blocking was performed with 10% BSA for 2 h at room temperature. Antibody incubation was performed using scFv-hERG1-G3, scFv-hERG1-D8Cys, diluted 1:20 in blocking solution and incubated for 2 and half hours, followed by anti-His (1:250; Abcam) O/N incubation in blocking solution. The following day, cells were washed three times with PBS and incubated with anti-mouse Alexa488 antibody (Invitrogen) for 1 h. Whereas, scFv-hERG1-G3-Alexa488 and scFv-hERG1-D8Cys-Alexa488, diluted 1:20 in blocking solution, were incubated O/N at 4° C.
Cells were grown O/N on 60 mm plates (Sarstedt) using an agarose (15 g/L) ring in order to isolate cells and minimize the volumes of reagents needed for incubations. Cells were incubated with scFv-hERG1-G3-Alexa488 and scFv-hERG1-D8Cys-Alexa488 diluted 1:20 in complete culture medium in a 37° C. incubator with 5% C02 for 4 h. Rivelation was performed using Hoechst, as previously described. Cells were visualized on a inverted light microscopy (Nikon, Eclipse TE300).

T1 sequence (Q12809 whole entry): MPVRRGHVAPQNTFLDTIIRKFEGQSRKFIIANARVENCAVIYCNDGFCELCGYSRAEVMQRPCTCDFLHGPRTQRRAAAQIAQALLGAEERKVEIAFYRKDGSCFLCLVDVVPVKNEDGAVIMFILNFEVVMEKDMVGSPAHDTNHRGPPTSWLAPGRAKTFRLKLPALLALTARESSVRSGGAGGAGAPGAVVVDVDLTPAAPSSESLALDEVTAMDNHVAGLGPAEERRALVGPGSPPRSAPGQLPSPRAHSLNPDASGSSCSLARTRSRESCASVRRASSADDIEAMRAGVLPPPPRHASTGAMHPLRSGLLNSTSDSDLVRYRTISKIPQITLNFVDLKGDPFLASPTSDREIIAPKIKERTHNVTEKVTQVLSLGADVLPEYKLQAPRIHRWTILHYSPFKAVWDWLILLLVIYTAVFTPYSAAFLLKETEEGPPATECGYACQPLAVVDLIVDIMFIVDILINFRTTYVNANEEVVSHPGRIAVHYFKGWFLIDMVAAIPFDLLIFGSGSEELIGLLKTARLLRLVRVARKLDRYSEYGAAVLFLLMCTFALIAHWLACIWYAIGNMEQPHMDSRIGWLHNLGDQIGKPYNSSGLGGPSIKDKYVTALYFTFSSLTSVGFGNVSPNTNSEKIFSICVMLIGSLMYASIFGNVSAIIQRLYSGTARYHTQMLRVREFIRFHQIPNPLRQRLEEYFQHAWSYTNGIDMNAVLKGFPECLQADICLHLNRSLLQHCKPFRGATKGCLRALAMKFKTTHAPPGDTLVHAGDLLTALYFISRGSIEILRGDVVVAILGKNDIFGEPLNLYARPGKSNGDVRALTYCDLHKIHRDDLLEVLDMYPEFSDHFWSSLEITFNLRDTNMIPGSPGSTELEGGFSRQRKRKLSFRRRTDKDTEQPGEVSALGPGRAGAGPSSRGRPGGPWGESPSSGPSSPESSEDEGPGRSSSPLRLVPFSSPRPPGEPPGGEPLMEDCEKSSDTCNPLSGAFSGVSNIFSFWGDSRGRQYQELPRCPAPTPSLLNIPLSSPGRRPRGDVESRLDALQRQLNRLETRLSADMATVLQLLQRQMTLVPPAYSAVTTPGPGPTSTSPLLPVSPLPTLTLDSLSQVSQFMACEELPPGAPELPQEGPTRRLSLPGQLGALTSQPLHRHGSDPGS

Binder | IC50, cell viability of MDA-MB 231 cells (hERG1 [1]) [µg/mL] | IC50, cell viability of PANC-1 cells (hERG1 [1]) [µg/mL] | binding result (S5-Pore peptide) | binding result (hERG1 [2])
scDb-hERG1-Cys-β1 (bispecific antibody) EAECADEVQLQQSGPELVKPGASVKISCKTSGYTFTEYTVHWVKQSHGKSLEWIGGINPNGGTTYNQKFKGKATLTIDKSSSSAFMELRSLTSEDSAVYYCATGWGPDYWGQGTTLTVSSAKTTPPSVYPLAPGSSDIVMTQTPTTMAASPGDKITITCSVSSIISSNYLHWYSQKPGFSPKLLIYRTSNLASGVPPRFSGSGSGTSYSLTIGTMEAEDVATYYCQQGSDIPLTFGDGTKLDLKRADAAPTVSGGGGSGGGGSGGGGSGGGGSEVKVVESGGGLVKPGGSLKLSCAASGFTFSSYTMSWVRQTPEKRLEWVATISSGGSYTYYPDSVKGRFTISRDKAKNTLYLQMGSLKSEDTAMYYCTRIGYDEDYAMDHWGQGTSVTVSSAKTTPPSVYSALDIVLTQSPLTLSVNIGQPASISCKSSQSLLYTNGKTYFNWLLQRPGQSPKRLIYLVSKLDSGVPDRFTGSGSGTDFTLKISRVEAEDLGVYYCAQGTHFPWTFGGGTKLEIKRADAAPTVSAAAEQKLISEEDLNGAPRHHHHHHHH | 42 | 24 |  | 
scFv-hERG1-D8Cys (scFv, Clone D8, expressed in Pichia pastoris from pPIC9K with a 6xHis tag; Also tested after conjugation with Alexa 488; also called scFv-hERG1-Cys; anti-hERG1-Cys scFv) scFv: EVQLQQSGPELVKPGASVKISCKTSGYTFTEYTVHWVKQSHGKSLEWIGGINPNGGTTYNQKFKGKATLTIDKSSSSAFMELRSLTSEDSAVYYCATGWGPDYWGQGTTLTVSSAKTTPPSVYPLAPGSSGGGGSGGGGSGGSALDIVLTQSPLTLSVNIGQPASISCKSSQSLLYTNGKTYFNWLLQRPGQSPKRLIYLVSKLDSGVPDRFTGSGSGTDFTLKISRVEAEDLGVYYCAQGTHFPWTFGGGTKLEIKRADAAPTVSAAAEQKLISEEDLNGAA |  |  | binds | binds
